We go through five substances from patent US20250136650A1, “COMPOSITIONS AND METHODS FOR DNA BINDING AND TRANSCRIPTIONAL REGULATION” (THE UNIVERSITY OF CHICAGO, priority 2021, published 2025).

Data set [1] concerns FJSTR72 (Fos/Jun-derived stapled bZIP dimer) (synthetic (human c-Fos/c-Jun)). Nature of the data set: EMSA.
The test system of data set [2] is T1, STR22 (XBP1-derived stapled bZIP dimer) (synthetic (human XBP1)).
T1 sequence 1: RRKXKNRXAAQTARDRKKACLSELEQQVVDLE
T1 sequence 2: T1 sequence 1 with C20R, E25X
Nature of the data set: cell_activity. The settings on record: +/-3.5; inhibition of XBP1s-induced luciferase in HeLa, 24 h.

Data set [3] has the same test system. Put plainly: competition. The conditions noted are these: EMSA competition with unlabeled UPRE against 5 nM labeled UPRE. For orientation: A gel shift assay detects complexes by their altered migration in electrophoresis.
Data set [4] deals with cells. Put plainly: Fluorescent microscopy of cell penetration by FJSTRs. The conditions noted are these: FJSTR7 and FJSTR72 at 5 μM, FJSTR71 at 2 μM. It is filed as cell-based. The source says:
(§1) bZIP transcriptional repressors FJSTR7 (shown in FIGS. 42 and 45), FJSTR71 (shown in FIGS. 52 and 53), and FJSTR72 (shown in FIGS. 52 and 54), were generated and tested.

Data set [5] deals with MC38 tumors. Put plainly: Subcutaneous MC38 tumor model. It is filed as in vivo. The conditions noted are these: MC38-bearing mouse, intratumoral.
The target in data set [6] is AP-1 site. Put plainly: EMSA, direct binding to AP-1 DNA probe.
Source text: The DNA binding dimer STR22 (shown in FIG. 21 and FIG. 27) was synthesized. STR22 was subjected to EMSA to measure binding to either the UPR element (UPRE) or AP-1 binding site (AP-1).
as §1
Electrophoretic Mobility Shift Assays (EMSAs): For direct DNA binding experiments, STRs were serially diluted at 10× concentration in water and then 1 μL of STR solution was added to 9 μL of 5 nM IRD700-labeled DNA probe bearing either a UPRE or AP-1 motif in a final 1×binding buffer (20 mM HEPES pH 8.0, 150 mM NaCl, 5% glycerol, 1 mM EDTA, 2 mM MgCl2, 0.5 mg/mL BSA, 1 mM DTT, 0.05% NP-40). Samples were incubated for 1 hr at RT. 5 μL of each reaction was loaded on an 8% acrylamide, 0.5×TBE gel equilibrated to 4° C. Samples were resolved for 60 min at 110 V and 4° C. with 0.5×TBE+1 mM MgCl2 running buffer. Gels were pre-run at 110 V for 15 min prior to sample loading. For competition experiments, 30 or 60 nM STRs and 5 nM labeled UPRE probe were incubated with 0, 7.8, 13, 21.6, 36, 60 or 100 nM unlabeled competitor oligo for 1 hr at RT. […] ImageJ was used to quantify band intensity and the fraction of bound DNA was calculated by dividing the band intensity of bound DNA by the band intensity of free DNA from the vehicle treated lane. […]

Data set [7] concerns Ebox site. Nature of the data set: EMSA, binding to Ebox site.
Source text: as §1

For data set [8], the system named is T1, STR22 (XBP1-derived stapled bZIP dimer) (synthetic (human XBP1)). Put plainly: EMSA. The conditions noted are these: 20 mM HEPES pH 8.0, 150 mM NaCl, 2 mM MgCl2, RT 1 h; 14.17 nM reported in Example 4 (FIG. 2).
For data set [9], the target named is T2, STR4 (XBP1-derived unstapled bZIP dimer, Met-to-Leu) (synthetic (human XBP1)) (UniProt P17861+P17861).
T2 sequence 1: T1 sequence 1 with X4L, X8V
T2 sequence 2: T1 sequence 1 with X4L, X8V, C20R, E25X
Put plainly: EMSA. The conditions noted are these: 20 mM HEPES pH 8.0, 150 mM NaCl, 2 mM MgCl2, RT 1 h.

Positions count from the first letter of the chain named. Entries after “also recorded” stand apart in the source; their conditions may differ. *1 amine or outer side, *2 acyl side, *3 side chain or, on linkers, in order; H or OH if unused. Bridges are numbered along the chain shown (N, C = ends). Roman numbers before positions name the chains, in order. [ ]: non-standard residue; d: D form. X1 = O=C1CC([*:1])C(=O)N1CC(=O)[*:2]; S5 = C=CCCC[C@](C)(N)C(=O)O

AP-1 site probe (FJSTR): the Kd (in general, a measure of binding affinity in units of concentration) in data set [1] is 12 nM. In the case of 3xUPRE luciferase reporter, the IC50 (as a rule, the point on the concentration scale where inhibition reaches its midpoint) in [2] was found to be 7400 nM. For the substance “TGACGTGG (double strand) [UPRE consensus competitor (unlabeled)]”, in data set [3], the Ki – broadly, the equilibrium dissociation constant of an inhibitor or competing ligand from its target – turned out to be 28.6 nM. As for “I: Ac-IRRERNKMAAAKSRNRRRECI[S5]ELQ[S5]EIEQLE-NH2 / II: Ac-RKRMRNRIAASKSRKRKLERI[S5]RLK[S5]KIKTLK-NH2 (linker I:20-II:25 via X1; staple (Z) I:22-I:26, II:22-II:26) [FJSTR72]”, the penetration of cells result in data set [4] is on record as “penetration; also recorded: capable of entering cells”. Besides, in [5], the tumor growth result is on record as “reduces tumor growth”. The substance also came in with a Kd in [6] of 12 nM. Besides, the “binding to Ebox site” value in data set [7] was “does not bind to the Ebox site”. Take “TGACGTGG (double strand) [UPRE consensus probe]”: the Kd is 11 nM in [8] and 49 nM in data set [9].
